# Reference: article PMC6868718, “Multiple transcription factors co-regulate the Mycobacterium tuberculosis adaptation response to vitamin C” (BMC Genomics, 2019)
# T1: Rv0348 (MosR) (Mycobacterium tuberculosis H37Rv) (UniProt O06299)
# T1 sequence: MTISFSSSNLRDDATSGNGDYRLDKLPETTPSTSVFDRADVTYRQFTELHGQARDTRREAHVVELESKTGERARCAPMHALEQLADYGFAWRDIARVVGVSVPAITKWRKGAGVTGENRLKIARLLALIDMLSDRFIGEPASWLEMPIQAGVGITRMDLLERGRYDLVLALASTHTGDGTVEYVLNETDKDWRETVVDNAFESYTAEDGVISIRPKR
# B1: Rv0348-His6 (natural protein)
# chain: MTISFSSSNLRDDATSGNGDYRLDKLPETTPSTSVFDRADVTYRQFTELHGQARDTRREAHVVELESKTGERARCAPMHALEQLADYGFAWRDIARVVGVSVPAITKWRKGAGVTGENRLKIARLLALIDMLSDRFIGEPASWLEMPIQAGVGITRMDLLERGRYDLVLALASTHTGDGTVEYVLNETDKDWRETVVDNAFESYTAEDGVISIRPKR
# notes: also called mosR; not shown: His6, C-terminal, kept
# Assays:
# [1] = target: T1, Rv0348 (MosR) (Mycobacterium tuberculosis H37Rv); assay: EMSA
# [2] = target: T2, Phosphorylated DevR (DevR~P) (Mycobacterium tuberculosis, UniProt P9WMF9 1-217, phosphorylated using 50 mM acetyl phosphate (residue not stated)); assay: native gel or EMSA; details: both partners purified
# T2 construct: DevR, two-component response regulator of Mycobacterium tuberculosis (devR of the Rv3134c-devR-devS operon), phosphorylated in vitro with acetyl phosphate; also called His6-DevR phosphorylated
# T2 sequence (P9WMF9 whole entry): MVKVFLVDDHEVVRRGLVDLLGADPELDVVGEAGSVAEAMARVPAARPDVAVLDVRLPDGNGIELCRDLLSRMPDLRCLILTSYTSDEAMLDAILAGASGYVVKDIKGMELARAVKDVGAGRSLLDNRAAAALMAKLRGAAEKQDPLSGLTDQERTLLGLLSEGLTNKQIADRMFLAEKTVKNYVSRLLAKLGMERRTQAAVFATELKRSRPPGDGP
Molecule,binding [1],binding result [2]
TTACTGGCGGGGACCGCTATCTCCCAGGGGCGTTGGTCCCCACCTGAGGGCCGTTAGTCCTTATCGACCGATGACAGACGCAACCCGTCAGGGCGAGAATGAATCTCACCTATCGCACGGGTGGCTCGTCCAGGTCCACAACCATCGCCCAGCTTTTCACAGCAAAGTCCCAGAAATGGCTTACAGTTGCCGACAGCTGCCGAACCAGCGGCCGTC (double strand) [Rv3134c promoter fragment (devR operon promoter)],no binding,–
B1,–,binds
